Molecular target: CCNY, Q8ND76-1
Sequence (Q8ND76 whole entry): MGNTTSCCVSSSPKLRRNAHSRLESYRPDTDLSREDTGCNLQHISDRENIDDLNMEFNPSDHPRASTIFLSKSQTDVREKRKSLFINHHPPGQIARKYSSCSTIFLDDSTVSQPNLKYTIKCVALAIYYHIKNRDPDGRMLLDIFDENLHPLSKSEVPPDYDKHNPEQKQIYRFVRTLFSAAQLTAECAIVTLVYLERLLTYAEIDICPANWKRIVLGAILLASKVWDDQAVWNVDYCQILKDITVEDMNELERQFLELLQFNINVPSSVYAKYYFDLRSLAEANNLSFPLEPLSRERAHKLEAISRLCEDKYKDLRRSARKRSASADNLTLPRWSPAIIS

Sequence of Cyclin-dependent kinase 16 (Homo sapiens), Q00536 G158D (Q00536 whole entry G158D): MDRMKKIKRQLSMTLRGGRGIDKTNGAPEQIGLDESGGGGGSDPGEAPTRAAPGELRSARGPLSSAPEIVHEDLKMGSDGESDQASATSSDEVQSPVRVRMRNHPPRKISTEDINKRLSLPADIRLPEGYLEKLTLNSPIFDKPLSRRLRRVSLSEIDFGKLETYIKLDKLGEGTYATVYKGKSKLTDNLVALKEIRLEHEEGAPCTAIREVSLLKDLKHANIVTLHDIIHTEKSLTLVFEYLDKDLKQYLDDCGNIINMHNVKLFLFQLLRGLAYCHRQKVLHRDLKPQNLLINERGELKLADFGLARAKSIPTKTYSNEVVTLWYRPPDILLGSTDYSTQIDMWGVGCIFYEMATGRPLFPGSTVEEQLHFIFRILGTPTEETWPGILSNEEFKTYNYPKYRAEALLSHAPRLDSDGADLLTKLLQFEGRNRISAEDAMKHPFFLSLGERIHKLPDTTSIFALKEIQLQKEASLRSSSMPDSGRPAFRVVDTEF
Sequence of Cyclin-dependent kinase 16 (Homo sapiens), Q00536 S153D (Q00536 whole entry S153D): as the sequence (Q00536 whole entry G158D) above, with S153D, D158G counted along it
Sequence of Cyclin-dependent kinase 16 (Homo sapiens), Q00536 S119A (Q00536 whole entry S119A): as the sequence (Q00536 whole entry G158D) above, with S119A, D158G counted along it
Sequence of Cyclin-dependent kinase 16 (Homo sapiens), Q00536 K216E (Q00536 whole entry K216E): as the sequence (Q00536 whole entry G158D) above, with D158G, K216E counted along it
Sequence of Cyclin-dependent kinase 16 (Homo sapiens), Q00536 I209T (Q00536 whole entry I209T): as the sequence (Q00536 whole entry G158D) above, with D158G, I209T counted along it
Sequence of Cyclin-dependent kinase 16 (Homo sapiens), Q00536 S153A (Q00536 whole entry S153A): as the sequence (Q00536 whole entry G158D) above, with S153A, D158G counted along it

Substance	effect of a mutation on the interaction
Cyclin-dependent kinase 16 (Homo sapiens), Q00536 G158D	disrupting interaction strength
Cyclin-dependent kinase 16 (Homo sapiens), Q00536 I209T	disrupting interaction strength
Cyclin-dependent kinase 16 (Homo sapiens), Q00536 K216E	disrupting interaction strength
Cyclin-dependent kinase 16 (Homo sapiens), Q00536 S119A	disrupting interaction strength
Cyclin-dependent kinase 16 (Homo sapiens), Q00536 S153A	increasing interaction strength
Cyclin-dependent kinase 16 (Homo sapiens), Q00536 S153D	disrupting interaction strength
